± gives the standard deviation of the averaged measurements.
B1: library; a variant is named by its letters at N, in order (parent)
chain: GCUGUCACCGGUGUAUUACCCUAGUGGUCGACCGGUCUGAUGAGUCUNNNNNNAGACGAAACAGC

How the values were obtained:
hypoxanthine [1] = variants of: B1; test: normalized RNA/DNA level with ligand (relative to sTRSVctl = 100) (log10 (% of sTRSVctl)); ligand: hypoxanthine (xanthine aptamer); higher = less ribozyme self-cleavage, higher mRNA level; conditions: ligand concentration (+) RNA-Seq: 5 mM, HEK293T, reporter: mCherry (pCS4076), ligand present: yes
Procedure, shortened: (§1)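 Ribozyme switch library plasmids with mCherry reporters (eGFP in certain ligand experiments) went into HEK293T cells at 4 µg per 6-well well. Where ligand was used, it was applied 1 h before transfection, and total RNA was extracted with EDTA 72 h later for reverse transcription, amplification, barcoding and sequencing. RNA level is the RNA-to-DNA read ratio normalized to a spiked-in non-cleaving sequence or to the leading sequences, then scaled and log-transformed. Scaling was ×100 with log10, the leading set comprised 25 sequences, and the cutoff was ≥100 DNA reads.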

hypoxanthine [2] = variants of: B1; test: normalized RNA/DNA level without ligand (relative to sTRSVctl = 100) (log10 (% of sTRSVctl)); ligand: hypoxanthine (xanthine aptamer); higher = less ribozyme self-cleavage, higher mRNA level; conditions: HEK293T, reporter: mCherry (pCS4076), ligand present: no
Procedure, shortened: as §1

Variant	normalized RNA/DNA level with ligand (log10) (hypoxanthine [1])	normalized RNA/DNA level without ligand (log10) (hypoxanthine [2])
CAGUCG	1.98 ± 0.025	1.888 ± 0.0091
CAGUCU	1.98 ± 0.005	1.792 ± 0.016
CAGUCA	1.93 ± 0.025	1.6768 ± 0.0013
CAGUCC	1.984 ± 0.0083	1.88 ± 0.024
AAGGAC	1.905 ± 0.017	1.648 ± 0.012
AAUCUU	1.94 ± 0.029	1.914 ± 0.012
AAUCUC	2 ± 0.062	2.023 ± 0.02
AAGGUC	1.95 ± 0.08	1.89 ± 0.016
UAGGGA	1.861 ± 0.011	1.49 ± 0.035
UAGGGC	1.962 ± 0.01	1.88 ± 0.057
GAGAUU	1.92 ± 0.041	1.82 ± 0.03
AAUAUC	1.95 ± 0.055	1.945 ± 0.0067
AAUAUU	1.93 ± 0.088	1.88 ± 0.031
CAUCAU	1.921 ± 0.011	1.88 ± 0.043
CAUCAC	1.96 ± 0.06	1.92 ± 0.062
CAUCAA	1.938 ± 0.011	1.81 ± 0.042
AAGAAC	1.9 ± 0.032	1.7418 ± 0.00032
CAGAGU	1.97 ± 0.035	1.79 ± 0.056
CAGAGC	1.926 ± 0.019	1.74 ± 0.022
CAUGGA	1.92 ± 0.05	1.7786 ± 0.00037
CAUGGC	1.97 ± 0.044	1.87 ± 0.046
AAUGCC	1.942 ± 0.015	1.83 ± 0.039
AAUGCU	1.92 ± 0.071	1.864 ± 0.011
UAUGUA	1.906 ± 0.0084	1.837 ± 0.0025

Variant	normalized RNA/DNA level with ligand (log10) (hypoxanthine [1])	normalized RNA/DNA level without ligand (log10) (hypoxanthine [2])
UAGGCG	1.892 ± 0.01	1.67 ± 0.037
UAGGCA	1.905 ± 0.01	1.812 ± 0.0025
UAGGCU	1.957 ± 0.013	1.89 ± 0.027
CAGACU	1.92 ± 0.043	1.92 ± 0.022
CAGACC	2.04 ± 0.037	1.96 ± 0.045
CAGACG	1.98 ± 0.035	1.8 ± 0.081
CAGCUG	1.946 ± 0.019	1.89 ± 0.028
CAGCUU	1.954 ± 0.0095	1.86 ± 0.027
CAGCUA	1.903 ± 0.012	1.65 ± 0.056
GAGUCU	1.96 ± 0.026	1.84 ± 0.01
GAGUCC	2.015 ± 0.017	1.853 ± 0.013
GAGUCG	1.84 ± 0.019	1.38 ± 0.02
UAGCUU	2.003 ± 0.015	1.84 ± 0.024
UAGCUG	1.944 ± 0.011	1.77 ± 0.02
UAGCUA	1.96 ± 0.078	1.884 ± 0.0057
UAGCUC	1.98 ± 0.034	2.03 ± 0.038
AAUAAC	1.919 ± 0.0067	1.81 ± 0.029
AAGUCC	1.893 ± 0.016	1.81 ± 0.072
CACUUG	1.95 ± 0.1	1.88 ± 0.043
CAGCCU	2.039 ± 0.0086	1.91 ± 0.038
CAGCCG	1.947 ± 0.0075	1.88 ± 0.071
CAGCCC	2.03 ± 0.052	1.94 ± 0.023
CAGCCA	1.9708 ± 0.0019	1.78 ± 0.051
AAGCAC	1.89 ± 0.027	1.69 ± 0.047

Variant	normalized RNA/DNA level with ligand (log10) (hypoxanthine [1])	normalized RNA/DNA level without ligand (log10) (hypoxanthine [2])
AAGCAU	1.88 ± 0.027	1.705 ± 0.0018
AAUACU	1.8942 ± 0.0003	1.833 ± 0.0049
GAUCCU	1.979 ± 0.014	1.948 ± 0.012
GAUCCC	2.05 ± 0.042	1.889 ± 0.0035
GAUCCA	1.908 ± 0.0041	1.9 ± 0.03
CAGUAC	1.898 ± 0.0032	1.668 ± 0.015
CAGUAA	1.855 ± 0.012	1.53 ± 0.081
AAGUUC	1.9 ± 0.052	1.787 ± 0.0052
CAGCGC	2.01 ± 0.038	1.847 ± 0.007
CAGCGA	1.94 ± 0.027	1.79 ± 0.035
CAUCUG	1.97 ± 0.022	1.92 ± 0.081
CAUCUC	1.957 ± 0.0025	2.01 ± 0.021
CAUCUU	2 ± 0.027	1.93 ± 0.047
CAUCUA	2.01 ± 0.12	1.85 ± 0.055
CAUGUC	1.91 ± 0.056	1.92 ± 0.042
CAUGUA	1.91 ± 0.011	1.771 ± 0.0036
UAGUAU	1.93 ± 0.041	1.761 ± 0.015
UAGUAA	1.939 ± 0.016	1.77 ± 0.022
UAGUAC	1.94 ± 0.031	1.81 ± 0.035
UAGAGC	1.908 ± 0.017	1.706 ± 0.0082
UAGGUA	1.96 ± 0.033	1.84 ± 0.036
UAGGUU	1.961 ± 0.0077	1.85 ± 0.015
CAGUUC	1.91 ± 0.11	1.81 ± 0.031
CAGUUA	1.87 ± 0.055	1.49 ± 0.035

Variant	normalized RNA/DNA level with ligand (log10) (hypoxanthine [1])	normalized RNA/DNA level without ligand (log10) (hypoxanthine [2])
CAGUUG	1.93 ± 0.046	1.801 ± 0.015
CAGUUU	1.95 ± 0.053	1.79 ± 0.018
GAUCGC	1.93 ± 0.023	1.8 ± 0.053
GAUCGU	1.96 ± 0.11	1.838 ± 0.013
GAUCGA	1.952 ± 0.0048	1.809 ± 0.0024
UAUAUC	1.94 ± 0.044	1.936 ± 0.0031
UAUAUU	1.907 ± 0.0056	1.847 ± 0.0083
GAGCUC	1.99 ± 0.045	1.91 ± 0.034
GAGCUU	1.92 ± 0.1	1.846 ± 0.0057
UAUAAC	1.9 ± 0.025	1.829 ± 0.017
UAUAAA	1.89 ± 0.025	1.77 ± 0.04
GAGACC	1.96 ± 0.048	1.82 ± 0.017
GAUACU	1.94 ± 0.069	1.87 ± 0.029
GAUACC	1.95 ± 0.03	1.875 ± 0.016
UAGUUC	1.943 ± 0.0072	1.87 ± 0.008
UAGUUU	1.92 ± 0.04	1.86 ± 0.023
UAGUUA	1.942 ± 0.013	1.861 ± 0.0033
UAGUUG	1.93 ± 0.053	1.707 ± 0.0035
UAGACU	1.925 ± 0.0021	1.83 ± 0.02
UAGACC	1.976 ± 0.016	1.92 ± 0.0073
UAGACA	1.9 ± 0.038	1.857 ± 0.0097
UAGACG	1.8696 ± 0.00011	1.642 ± 0.013
CAUCCC	1.935 ± 0.0098	1.91 ± 0.033
CAUCCG	1.95 ± 0.026	1.91 ± 0.029

Variant	normalized RNA/DNA level with ligand (log10) (hypoxanthine [1])	normalized RNA/DNA level without ligand (log10) (hypoxanthine [2])
CAUCCA	1.97 ± 0.056	1.94 ± 0.055
CAUCCU	1.94 ± 0.066	1.94 ± 0.023
AAGGCC	1.96 ± 0.066	1.9104 ± 0.0016
AAGGCU	1.9 ± 0.032	1.83 ± 0.05
AAGGCA	1.94 ± 0.035	1.64 ± 0.043
CAGGAG	1.91 ± 0.022	1.473 ± 0.012
CAGGAC	1.88 ± 0.063	1.782 ± 0.01
AAGCGC	1.89 ± 0.051	1.6 ± 0.039
GAGGUC	2 ± 0.043	1.843 ± 0.016
GAGGUA	1.862 ± 0.011	1.673 ± 0.0085
GAGGUU	1.97 ± 0.035	1.86 ± 0.023
GAUGCA	1.97 ± 0.036	1.83 ± 0.02
UAUCCA	1.918 ± 0.0099	1.904 ± 0.011
UAUCCC	1.95 ± 0.045	1.9 ± 0.023
UAUCCU	1.958 ± 0.0052	1.9 ± 0.03
GAUCAG	1.92 ± 0.05	1.72 ± 0.016
GAGCGU	1.915 ± 0.0047	1.647 ± 0.0019
CAGGUG	1.9 ± 0.025	1.77 ± 0.03
CAGGUC	1.94 ± 0.015	1.874 ± 0.011
CAGGUU	1.975 ± 0.0057	1.86 ± 0.0041

Source: the supplement of paper PMC6757056
